Columns and labels:
β2AR [1] = target: T1, β2AR (Homo sapiens, UniProt P07550); assay: Confocal trafficking and colocalization with β2AR; type: cell-based; conditions: HEK-293 cells with stable β2AR expression; agonist up to 20 minutes
T1 construct: Flag (N); expressed in transfected cells
Procedure: (§1) Immunostaining and confocal microscopy. […] Twenty-four hours post-transfection, cells were serum-starved for 4 h, and either left untreated or treated with respective agonists for the indicated times in the Figure descriptions. After stimulation, cells were fixed with 5% formaldehyde diluted in phosphate-buffered saline (PBS), permeabilized with 0.1% Triton in PBS containing 2% bovine serum albumin for 20 min and incubated at room temperature with appropriate primary antibody. The next day, cells were washed three times with PBS and incubated with Alexa594 conjugated secondary antibody for 1 h, followed by repeated washes using PBS. Confocal images were acquired using Zeiss LSM510 laser-scanning microscope using multitrack sequential with excitation (488 and 568 nm) and emission (BP 505-550 nm and LP 585 nm) filter sets. Images (1024×1024 pixels) were collected using either a 63× or 100× oil immersion lens. Images were processed for Figure presentation using Adobe Photoshop software, and any increase or decrease of brightness/contrast was applied to the entire image. The nuclear rim localization of YFP-βarrestin2-SUMO1 is readily visualized in cells with low to moderate expression of YFP-protein. In cells with high expression, this localization is present, and can be discerned by enlarging sections of the nuclear rim.
For βarrestin2-SUMO1, plasma membrane translocation was detected upon β2AR agonist activation, and, intriguingly, βarrestin2-SUMO1 was detected in endocytic vesicles. […] Confocal images were taken of cells stably expressing the β2AR and transiently expressing YFP-SUMO1 (data not shown). In both quiescent and agonist-treated cells, the SUMO1 protein remained in the nucleus. […] See Shenoy et al. 2007, supra; Shenoy and Lefkowitz. 2005. J Biol Chem 280:15315-15324; and Shenoy and Lefkowitz. 2003. J Biol Chem 278:14498-14506. Therefore, the endosomal trafficking was compared for βarrestin2-ubiquitin (βarrestin2-Ub) fusion protein and internalized β2ARs. […]

β2AR [2] = target: T1, β2AR; assay: BRET titration assay of βarrestin2 construct recruitment to β2AR-Rluc; type: cell-based; conditions: HEK-293T cells; β2AR-Rluc with YFP acceptor constructs; isoproterenol 1 μM, 5 min; compared among βarrestin2 constructs
Excerpt: BRET assays. […] Titration assays were first completed, which allowed determination of the specificity of association among different interaction partners. See Nagi and Shenoy. 2019, supra; Gales et al. 2005. Nature methods 2:177-184; Nagi et al. 2015. Cellular and molecular life sciences: CMLS 72:3543-3557; Audet and Pineyro. 2011. Methods in molecular biology 756:149-163; and Rebois et al. 2006. Journal of cell science 119:2807-2818. To achieve this, a fixed amount of the donor-tagged (Renilla luciferase, Rluc) construct was co-transfected with increasing amounts of the corresponding interaction partner bearing the acceptor (YFP). […] BRET readings were acquired using Synergy Neo2 plate reader and obtained 5 min after manual addition of Rluc substrate, coelenterazine h (Promega) to a final concentration of 5 μM.
The BRET signal generated was determined by calculating the ratio of light emitted by YFP (520-550 nm) over the light emitted by Rluc (440-480 nm). These values were then corrected by subtracting the background signal (detected when the Rluc-tagged construct was expressed without acceptor) from the BRET signal detected in cells co-expressing both donor and acceptor constructs. Agonist-induced BRET values were calculated by subtracting net BRET values of non-stimulated conditions from net BRET values corresponding to the stimulated conditions. […]

D2R = target: T2, D2R (Homo sapiens, UniProt P14416); assay: Confocal trafficking and colocalization with D2R; type: cell-based; conditions: HEK-293 cells stably expressing D2R
T2 construct: HA (N); expressed in transfected cells
T2 sequence (P14416 whole entry): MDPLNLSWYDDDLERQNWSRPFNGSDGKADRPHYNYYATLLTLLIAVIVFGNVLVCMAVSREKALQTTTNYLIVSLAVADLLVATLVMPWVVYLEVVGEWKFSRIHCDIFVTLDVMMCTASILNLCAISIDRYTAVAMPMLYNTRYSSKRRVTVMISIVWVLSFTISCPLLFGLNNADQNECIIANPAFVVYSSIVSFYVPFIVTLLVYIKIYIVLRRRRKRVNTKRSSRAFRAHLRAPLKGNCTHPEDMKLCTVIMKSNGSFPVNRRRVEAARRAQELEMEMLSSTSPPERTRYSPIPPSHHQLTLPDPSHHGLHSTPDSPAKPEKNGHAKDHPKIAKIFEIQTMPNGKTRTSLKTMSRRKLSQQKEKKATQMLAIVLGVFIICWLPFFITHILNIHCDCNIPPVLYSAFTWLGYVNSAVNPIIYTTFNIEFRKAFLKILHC
Procedure: as §1, with “rim. […]” for “rim.”

RanGAP1 = target: T3, RanGAP1 (Homo sapiens, UniProt P46060); assay: Co-immunoprecipitation of YFP-βarrestin2 constructs with endogenous RanGAP1; type: binding; conditions: IP of YFP proteins, probed for RanGAP1
T3 construct: endogenous in cells; host or cells: HEK-293T / HEK-293
T3 sequence (P46060 2-587 limits assumed): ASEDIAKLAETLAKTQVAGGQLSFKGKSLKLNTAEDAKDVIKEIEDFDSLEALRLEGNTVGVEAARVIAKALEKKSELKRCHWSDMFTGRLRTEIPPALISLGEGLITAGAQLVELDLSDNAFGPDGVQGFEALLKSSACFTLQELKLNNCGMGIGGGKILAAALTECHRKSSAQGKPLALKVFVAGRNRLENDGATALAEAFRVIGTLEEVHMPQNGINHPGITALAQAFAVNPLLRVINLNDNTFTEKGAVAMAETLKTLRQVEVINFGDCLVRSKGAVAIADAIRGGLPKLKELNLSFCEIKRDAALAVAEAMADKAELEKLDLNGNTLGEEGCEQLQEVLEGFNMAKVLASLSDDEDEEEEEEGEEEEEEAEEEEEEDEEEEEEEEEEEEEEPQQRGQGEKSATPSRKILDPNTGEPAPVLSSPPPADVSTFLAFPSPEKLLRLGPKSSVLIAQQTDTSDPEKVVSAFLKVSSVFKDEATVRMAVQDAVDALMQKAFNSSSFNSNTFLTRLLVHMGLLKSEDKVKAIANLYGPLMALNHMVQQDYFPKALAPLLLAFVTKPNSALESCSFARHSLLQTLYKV
T3 sequence (P63165 2-97 partner limits assumed): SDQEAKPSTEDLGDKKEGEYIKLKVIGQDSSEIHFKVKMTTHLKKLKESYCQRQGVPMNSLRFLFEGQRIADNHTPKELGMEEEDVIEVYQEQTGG
Excerpt: HEK-293T cells were transiently transfected with indicated plasmids and subjected to coimmunoprecipitation with GFP IgG (3E6, Thermo Fisher) to immunoprecipitate YFP-βarrestin2 or YFP-βarrestin2-SUMO1 (“IP: YFP”). IPs were probed for endogenous RanGAP1, and for βarrestins. Cell lysates were also blotted to determine total cell protein levels (“Lysates”). Blots shown are from one of three independent experiments.

HEK-293 cells = assay: Confocal microscopy of subcellular distribution of YFP-tagged proteins; type: cell-based, Human; conditions: 85 cells (mYFP-βarrestin2-SUMO1) and 80 cells (mYFP-SUMO1) observed
Procedure: as §1, with “Images (1024×1024 pixels) were collected using either a 63× or 100× oil immersion lens. Images were processed for Figure presentation using Adobe Photoshop software, and any increase or decrease of brightness/contrast was applied to the entire image.” left out, “In cells with high expression, this localization is present, and can be discerned by enlarging sections of the nuclear rim.” left out
To circumvent this issue, a YFP tagged βarrestin2-SUMO1 fusion protein was generated, which would be resistant to the enzymatic activity of SENP1. YFP-βarrestin2-SUMO1 expressed in the cytoplasm akin to YFP-βarrestin2; but was also detected at the nuclear membrane (data not shown). […] While YFP-SUMO1 was concentrated in the nucleus, and nucleoli, very little βarrestin2-SUMO1 was detected in the nucleus or nucleolus. […]

## βarrestin2-SUMO1: rat βarrestin2 polypeptide fused to human SUMO1 (SEQ ID NO:1); used YFP- or Flag-tagged
β2AR [1]
  colocalization / complexes with β2AR after agonist activation (confocal): persisted with longer agonist activation
β2AR [2]
  agonist-induced net BRET change for interaction with β2AR: highest change in the net BRET value
D2R
  stability of association with activated D2R (confocal): associate stably
RanGAP1
  association with endogenous RanGAP1 forms by co-immunoprecipitation: associated only with SUMO-RanGAP1
HEK-293 cells
  localization of YFP fluorescence at the nuclear membrane: all cells

Source: patent US20230227514A1, “BETA-ARRESTIN COMPOSITIONS AND ASSOCIATED METHODS” (Duke University, priority 2020, published 2023)
